Drawing on publication PMC6430559, “Antigenicity and Immunogenicity of Differentially Glycosylated Hepatitis C Virus E2 Envelope Proteins Expressed in Mammalian and Insect Cells” (Journal of Virology, 2019), this text covers Kd for two molecules.

Holding throughout (assay): BLI; Octet RED96; His6-tagged sE2 (5 ug/ml, 600 s) loaded on Ni2+-NTA biosensors and stabilised with EDC/NHS, quenched with 1 M ethanolamine pH 8.0; association 300 s, dissociation 300 s; 2-fold dilution series of CD81 or HMAb (IgG format); steady-state analysis by the legend, global fit by the methods; values may reflect bivalent IgG binding
Assay [1] addresses HEK293-derived soluble HCV E2 glycoprotein (sE2), genotype 1a H77c, residues 384 to 661, monomeric (hepatitis C virus genotype 1a, strain H77c) (UniProt P27958).
The target in assay [2] is Sf9-derived soluble HCV E2 glycoprotein (sE2), genotype 1a H77c, residues 384 to 661, monomeric (hepatitis C virus genotype 1a, strain H77c) (UniProt P27958).
Assay [3] has as its target T1, HEK293-derived soluble HCV E2 glycoprotein (sE2), genotype 1a H77c, residues 384 to 661, monomeric (hepatitis C virus genotype 1a, strain …, UniProt P27958 384-661, N-glycans at positions 417, 423, 430, 448, 476, 532, 540, 556, 576, 623 and 645; mostly complex- and high-mannose-type glycans).
T1 construct: HCV envelope glycoprotein E2 lacking the C-terminal transmembrane anchor, amino acids 384 to 661 of the strain 1a HCV H77c polyprotein; also called HEK293-derived sE2; HEK293 sE2; source: FreeStyle 293-F (HEK293-F) cells, transfected, secreted; purified from culture supernatant (HisTrap Ni2+-NTA, Superdex 200; monomer peak); not shown: His6, C-terminal, kept
The note with it: both partners purified.

The target in assay [4] is T2, Sf9-derived soluble HCV E2 glycoprotein (sE2), genotype 1a H77c, residues 384 to 661, monomeric (hepatitis C virus genotype 1a, strain …, UniProt P27958 384-661, N-glycans at positions 417, 423, 430, 448, 476, 532, 540, 556, 576, 623 and 645; mainly paucimannose-type glycans, with or without one or two core fucose residues).
T2 construct: HCV envelope glycoprotein E2 lacking the C-terminal transmembrane anchor, amino acids 384 to 661 of the strain 1a HCV H77c polyprotein; also called Sf9-derived sE2; Sf9 sE2; source: Sf9 cells infected with recombinant baculovirus, secreted; purified from culture supernatant (HisTrap Ni2+-NTA, Superdex 200; monomer peak); not shown: His6, C-terminal, kept
The note with it: both partners purified.

Sequence of Sf9-derived soluble HCV E2 glycoprotein (sE2), genotype 1a H77c, residues 384 to 661, monomeric (hepatitis C virus genotype 1a, strain H77c) (P27958 384-661): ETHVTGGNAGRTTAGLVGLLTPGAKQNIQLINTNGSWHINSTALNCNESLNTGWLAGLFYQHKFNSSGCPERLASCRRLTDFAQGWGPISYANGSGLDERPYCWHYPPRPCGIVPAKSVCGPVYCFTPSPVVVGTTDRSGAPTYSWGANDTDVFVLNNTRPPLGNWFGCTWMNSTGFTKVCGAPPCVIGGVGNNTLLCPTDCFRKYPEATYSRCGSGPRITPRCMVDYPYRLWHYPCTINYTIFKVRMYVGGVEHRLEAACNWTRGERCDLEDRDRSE
T1 sequence (P27958 384-661): as above
Sequence of HEK293-derived soluble HCV E2 glycoprotein (sE2), genotype 1a H77c, residues 384 to 661, monomeric (hepatitis C virus genotype 1a, strain H77c) (P27958 384-661): as above
T2 sequence (P27958 384-661): as above

B1: Human monoclonal antibody (HMAb) HC33.1, specific for antigenic domain E of HCV E2 (antibody, V domains shown)
VH: EVQLVESGGGLVQPGGSLRLSCVASGLTFTNFAVSWVRQAPGKGLEWVSAISSSDGSTYYSDSVKGRFTISRDSSMNTLYLQMDSLRVEDTAVYFCARAVVSSDITYTYWSKYFDYWGQGTLVTVSS
VL: QSVVTQPPSVSAAPGQKVTISCSGGSFNIGNNYVSWYQQLPGTAPKLLIYDNDNRPSGIPDRFSGSKSGTSATLDITGLQTGDEADYYCGTWDSSLNVVVFGGGTKLTVL
On to B1, for which the Kd in assay [1] was found to be 50 nM; in assay [2] it was 47 nM.

B2: Human CD81 large extracellular loop (CD81-LEL; CD81 residues 113 to 201) (domain or fragment, UniProt P60033 113-201, looked up)
chain: FVNKDQIAKDVKQFYDQALQQAVVDDDANNAKAVVKTFHETLDCCGSSTLTALTTSVLKNNLCPSGSNIISNLFKEDCHQKIDDLFSGK
notes: human CD81 large extracellular loop, residues 113 to 201; Cloned into the vector pHLsec (Addgene plasmid #99845 is the vector); The C-terminal His6 tag was stripped with carboxypeptidase A-agarose before biolayer interferometry; also called recombinant CD81; source: FreeStyle HEK293-F cells, transfected, secreted; purified from culture supernatant (HiTrap chelating HP Ni2+-NTA, Superdex 75); not …
For the molecule B2, the values for the Kd in assay [3] and in assay [4] were 510 ± 22 nM and 440 ± 38 nM, respectively.
